Test results: the supplement of paper PMC10065799, “High-throughput profiling of sequence recognition by tyrosine kinases and SH2 domains using bacterial peptide display” (eLife, 2023)

Assays:
[1] = biological target: SHP2-C SH2; test: SH2 binding enrichment of the phosphorylated peptide, bacterial display (enrichment ratio); higher = better substrate or ligand; peptides without Tyr show the background
[2] = biological target: Grb2 SH2 (UniProt P62993); test: as above
[3] = biological target: c-Src SH2; test: as above
[4] = system: c-Src; test: phosphorylation enrichment, bacterial display (enrichment ratio); higher = better substrate or ligand; peptides without Tyr show the background
[5] = biological target: EPHB1 (UniProt P54762); test: as above
[6] = biological target: Fyn (UniProt P06241); test: as above
[7] = biological target: EPHB2 (UniProt P29323); test: as above
[8] = system: Fer (mouse); test: as above
[9] = biological target: FGFR1 (UniProt P11362); test: as above
[10] = biological target: Hck (UniProt P08631); test: as above
[11] = biological target: Jak2 (UniProt O60674); test: as above
[12] = system: AncSZ; test: as above
[13] = system: c-Abl (mouse); test: as above
[14] = biological target: MERTK (UniProt Q12866); test: as above
[15] = biological target: FGFR3 (UniProt P22607); test: as above
[16] = biological target: Fes (UniProt P07332); test: as above
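For SH2 binding enrichment of the phosphorylated peptide, bacterial display in this document: peptide library displayed on the E. coli surface as eCPX fusions, selected cells deep-sequenced, score is each peptide's frequency after selection divided by its frequency in the input.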
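For phosphorylation enrichment, bacterial display in this document: 11-residue human phosphosite peptides and single-mutation variants displayed on the E. coli surface, counted by deep sequencing, each peptide's frequency after selection divided by its frequency in the unselected input library; frequency after pTyr selection over input frequency; kinase dosed for 20-30% of maximal phosphorylation in three min.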

Chain of Fyn (P06241 whole entry, looked up): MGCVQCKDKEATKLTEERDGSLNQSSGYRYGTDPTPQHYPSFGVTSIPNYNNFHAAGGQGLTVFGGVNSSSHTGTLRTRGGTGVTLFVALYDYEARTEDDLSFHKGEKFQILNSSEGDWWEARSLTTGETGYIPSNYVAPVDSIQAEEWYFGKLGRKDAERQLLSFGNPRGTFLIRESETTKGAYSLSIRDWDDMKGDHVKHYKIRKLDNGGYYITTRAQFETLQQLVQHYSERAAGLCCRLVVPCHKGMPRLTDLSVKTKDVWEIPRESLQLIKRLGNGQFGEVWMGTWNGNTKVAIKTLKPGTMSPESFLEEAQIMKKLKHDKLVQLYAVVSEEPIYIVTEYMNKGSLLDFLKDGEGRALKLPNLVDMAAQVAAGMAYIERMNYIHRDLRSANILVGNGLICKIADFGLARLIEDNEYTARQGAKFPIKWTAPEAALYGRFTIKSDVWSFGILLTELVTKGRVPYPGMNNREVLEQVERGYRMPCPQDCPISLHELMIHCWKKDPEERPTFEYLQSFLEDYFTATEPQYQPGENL
Chain of MERTK (Q12866 whole entry, looked up): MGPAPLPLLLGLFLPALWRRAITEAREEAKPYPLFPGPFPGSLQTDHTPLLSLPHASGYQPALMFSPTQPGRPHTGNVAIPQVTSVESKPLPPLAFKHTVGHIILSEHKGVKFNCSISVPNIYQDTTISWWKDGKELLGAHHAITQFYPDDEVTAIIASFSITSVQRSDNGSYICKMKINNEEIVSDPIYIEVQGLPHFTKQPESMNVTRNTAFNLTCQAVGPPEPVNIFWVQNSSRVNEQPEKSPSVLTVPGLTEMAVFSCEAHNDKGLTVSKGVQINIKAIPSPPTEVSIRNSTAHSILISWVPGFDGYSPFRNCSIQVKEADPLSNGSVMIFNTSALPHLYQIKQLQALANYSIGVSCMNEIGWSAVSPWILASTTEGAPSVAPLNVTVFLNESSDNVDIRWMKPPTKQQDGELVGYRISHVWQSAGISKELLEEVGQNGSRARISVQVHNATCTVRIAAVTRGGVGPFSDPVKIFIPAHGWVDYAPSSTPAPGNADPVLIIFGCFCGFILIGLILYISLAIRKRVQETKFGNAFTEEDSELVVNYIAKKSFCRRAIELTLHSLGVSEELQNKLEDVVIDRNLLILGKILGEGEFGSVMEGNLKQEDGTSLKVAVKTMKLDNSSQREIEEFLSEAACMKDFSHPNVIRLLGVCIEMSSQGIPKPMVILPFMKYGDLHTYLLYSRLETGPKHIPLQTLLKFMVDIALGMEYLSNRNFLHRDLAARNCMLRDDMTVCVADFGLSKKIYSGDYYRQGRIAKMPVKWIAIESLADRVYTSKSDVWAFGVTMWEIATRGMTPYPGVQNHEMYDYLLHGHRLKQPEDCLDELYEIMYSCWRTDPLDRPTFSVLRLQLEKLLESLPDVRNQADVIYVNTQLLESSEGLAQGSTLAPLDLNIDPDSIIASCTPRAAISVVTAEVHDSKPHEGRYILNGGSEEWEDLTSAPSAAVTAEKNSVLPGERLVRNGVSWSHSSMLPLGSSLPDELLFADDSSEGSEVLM
Chain of EPHB2 (P29323 whole entry, looked up): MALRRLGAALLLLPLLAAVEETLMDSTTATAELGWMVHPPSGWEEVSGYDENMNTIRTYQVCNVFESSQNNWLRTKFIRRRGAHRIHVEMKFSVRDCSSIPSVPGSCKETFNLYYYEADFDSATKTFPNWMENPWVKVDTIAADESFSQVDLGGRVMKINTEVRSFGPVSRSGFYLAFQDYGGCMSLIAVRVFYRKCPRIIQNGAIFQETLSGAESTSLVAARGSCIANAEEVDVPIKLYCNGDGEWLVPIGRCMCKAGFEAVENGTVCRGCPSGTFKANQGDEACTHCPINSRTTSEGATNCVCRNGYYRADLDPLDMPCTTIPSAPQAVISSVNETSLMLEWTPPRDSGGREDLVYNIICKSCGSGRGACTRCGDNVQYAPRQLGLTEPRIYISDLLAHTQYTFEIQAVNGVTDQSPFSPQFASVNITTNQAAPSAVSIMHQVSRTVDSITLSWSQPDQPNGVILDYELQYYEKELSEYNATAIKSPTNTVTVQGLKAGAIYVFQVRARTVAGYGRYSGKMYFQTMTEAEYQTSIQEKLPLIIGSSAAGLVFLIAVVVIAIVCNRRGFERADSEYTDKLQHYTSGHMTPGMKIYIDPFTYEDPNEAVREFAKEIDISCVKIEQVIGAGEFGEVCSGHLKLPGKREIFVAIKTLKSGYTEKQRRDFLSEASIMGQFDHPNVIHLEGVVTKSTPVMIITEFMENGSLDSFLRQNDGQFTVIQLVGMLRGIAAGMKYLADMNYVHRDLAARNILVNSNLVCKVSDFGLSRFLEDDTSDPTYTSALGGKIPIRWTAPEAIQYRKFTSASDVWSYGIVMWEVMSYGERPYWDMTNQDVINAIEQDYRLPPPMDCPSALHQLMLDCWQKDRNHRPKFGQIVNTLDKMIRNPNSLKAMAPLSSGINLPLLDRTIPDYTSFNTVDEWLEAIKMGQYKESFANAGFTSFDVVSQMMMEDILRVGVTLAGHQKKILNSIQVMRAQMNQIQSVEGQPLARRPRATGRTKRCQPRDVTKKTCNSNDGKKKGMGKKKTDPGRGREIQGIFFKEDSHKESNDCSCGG
Chain of FGFR1 (P11362 whole entry, looked up): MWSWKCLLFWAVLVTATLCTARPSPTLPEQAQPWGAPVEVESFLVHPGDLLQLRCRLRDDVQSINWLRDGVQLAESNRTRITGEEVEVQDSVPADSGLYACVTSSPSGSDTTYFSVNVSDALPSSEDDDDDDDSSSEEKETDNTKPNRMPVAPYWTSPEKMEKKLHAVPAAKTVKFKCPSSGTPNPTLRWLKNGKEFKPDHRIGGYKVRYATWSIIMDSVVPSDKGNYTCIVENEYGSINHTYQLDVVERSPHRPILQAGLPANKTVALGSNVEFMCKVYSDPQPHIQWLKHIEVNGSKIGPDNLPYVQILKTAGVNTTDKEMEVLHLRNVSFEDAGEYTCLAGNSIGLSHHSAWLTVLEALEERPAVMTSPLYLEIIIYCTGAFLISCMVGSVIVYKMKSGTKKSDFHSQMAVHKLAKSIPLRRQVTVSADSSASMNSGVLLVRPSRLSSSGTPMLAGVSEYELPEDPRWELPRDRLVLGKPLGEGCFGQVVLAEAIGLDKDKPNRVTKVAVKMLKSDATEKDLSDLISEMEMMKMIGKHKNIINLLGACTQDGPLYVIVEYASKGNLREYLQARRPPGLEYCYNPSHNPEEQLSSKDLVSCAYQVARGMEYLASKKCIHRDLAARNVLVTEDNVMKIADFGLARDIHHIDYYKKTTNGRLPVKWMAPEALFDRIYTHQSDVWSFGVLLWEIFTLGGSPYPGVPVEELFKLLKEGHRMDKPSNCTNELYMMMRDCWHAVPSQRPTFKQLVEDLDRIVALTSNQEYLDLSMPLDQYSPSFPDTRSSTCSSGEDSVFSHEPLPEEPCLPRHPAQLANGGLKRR
Chain of Jak2 (O60674 whole entry, looked up): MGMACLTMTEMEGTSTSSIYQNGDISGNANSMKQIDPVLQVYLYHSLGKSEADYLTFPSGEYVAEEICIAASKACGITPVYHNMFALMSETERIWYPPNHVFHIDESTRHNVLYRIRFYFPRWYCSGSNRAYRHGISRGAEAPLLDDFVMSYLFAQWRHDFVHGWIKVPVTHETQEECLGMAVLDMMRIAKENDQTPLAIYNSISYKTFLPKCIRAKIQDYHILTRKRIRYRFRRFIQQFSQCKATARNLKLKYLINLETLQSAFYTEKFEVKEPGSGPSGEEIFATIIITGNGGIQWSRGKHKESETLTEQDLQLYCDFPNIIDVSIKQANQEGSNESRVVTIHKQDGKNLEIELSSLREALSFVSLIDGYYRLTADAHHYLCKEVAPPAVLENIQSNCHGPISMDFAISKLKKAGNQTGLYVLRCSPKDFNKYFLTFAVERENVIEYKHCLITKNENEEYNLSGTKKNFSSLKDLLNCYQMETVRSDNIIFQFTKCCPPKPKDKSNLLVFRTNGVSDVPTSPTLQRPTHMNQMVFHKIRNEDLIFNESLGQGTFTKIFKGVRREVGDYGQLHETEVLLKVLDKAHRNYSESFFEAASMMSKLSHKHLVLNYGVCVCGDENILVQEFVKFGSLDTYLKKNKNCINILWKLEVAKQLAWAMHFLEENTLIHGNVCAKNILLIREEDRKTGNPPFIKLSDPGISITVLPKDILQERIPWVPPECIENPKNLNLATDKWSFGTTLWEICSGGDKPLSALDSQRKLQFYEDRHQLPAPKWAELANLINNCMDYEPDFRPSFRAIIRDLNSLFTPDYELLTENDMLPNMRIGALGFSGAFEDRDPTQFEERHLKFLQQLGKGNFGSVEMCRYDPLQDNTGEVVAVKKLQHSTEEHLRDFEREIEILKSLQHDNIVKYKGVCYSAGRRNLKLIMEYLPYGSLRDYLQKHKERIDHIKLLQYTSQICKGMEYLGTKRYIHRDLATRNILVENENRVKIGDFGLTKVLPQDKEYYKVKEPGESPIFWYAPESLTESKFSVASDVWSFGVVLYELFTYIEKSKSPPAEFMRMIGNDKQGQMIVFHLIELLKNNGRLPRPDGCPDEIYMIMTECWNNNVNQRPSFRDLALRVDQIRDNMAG
Chain of Hck (P08631 whole entry, looked up): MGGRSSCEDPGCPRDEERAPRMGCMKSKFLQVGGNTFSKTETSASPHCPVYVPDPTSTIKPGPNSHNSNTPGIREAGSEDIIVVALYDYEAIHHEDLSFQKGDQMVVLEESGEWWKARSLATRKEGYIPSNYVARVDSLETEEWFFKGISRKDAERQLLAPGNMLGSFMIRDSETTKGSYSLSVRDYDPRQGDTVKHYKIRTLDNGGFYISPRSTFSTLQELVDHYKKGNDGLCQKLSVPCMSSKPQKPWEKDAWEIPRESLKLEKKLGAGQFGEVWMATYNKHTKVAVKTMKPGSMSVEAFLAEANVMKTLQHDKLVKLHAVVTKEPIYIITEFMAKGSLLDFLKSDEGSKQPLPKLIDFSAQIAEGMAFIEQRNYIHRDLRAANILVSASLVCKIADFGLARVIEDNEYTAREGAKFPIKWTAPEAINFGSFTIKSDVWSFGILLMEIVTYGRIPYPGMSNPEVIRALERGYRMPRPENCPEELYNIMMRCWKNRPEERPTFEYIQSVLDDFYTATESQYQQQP

Sequence	SH2 binding enrichment [1]	SH2 binding enrichment [2]	SH2 binding enrichment [3]	phosphorylation enrichment [4]	phosphorylation enrichment [5]	phosphorylation enrichment [6]	phosphorylation enrichment [7]	phosphorylation enrichment [8]	phosphorylation enrichment [9]	phosphorylation enrichment [10]	phosphorylation enrichment [11]	phosphorylation enrichment [12]	phosphorylation enrichment [13]	phosphorylation enrichment [14]	phosphorylation enrichment [15]	phosphorylation enrichment [16]
TIQIMFGCDVG [HLA-A_Y123_Y123F]	0.84	0.861	0.515	0.548	0.905	0.545	0.801	0.749	0.645	0.619	1.42	1.28	1.01	0.503	1.14	1.86
TKDTFYKQRMF [GBA_Y451_P454R]	0.68	0.83	0.396	0.351	0.359	0.344	0.406	0.416	0.41	0.339	0.404	0.56	0.458	0.372	0.391	0.579
TKEPKYGGAGS [KIAA1210_Y1615_E1616G]	0.983	1.08	0.487	0.409	0.431	0.459	0.44	0.457	0.405	0.361	0.416	0.5	0.462	0.384	0.548	0.55
TKFRNYLIPKG [CYP2C8_Y379]	0.92	1.1	0.631	0.443	0.374	0.365	0.421	0.345	0.381	0.429	0.592	0.47	0.573	0.374	0.425	0.565
TKLKDYFIFNK [CCDC42_Y149_A144T_YF]	0.595	0.773	0.724	0.575	0.52	0.419	0.353	0.376	1.05	0.42	0.702	0.685	0.476	0.401	0.871	0.766
TKYVAYIESQG [KDM4B_Y34_N29T]	8.32	0.8	0.675	0.418	0.456	0.546	0.611	0.432	0.541	0.485	0.498	0.924	0.508	0.331	0.608	0.828
TNFCLYLRSLE [MTM1_Y71_R69C_YF]	0.644	0.773	0.525	0.612	0.895	0.594	0.759	0.847	0.512	0.567	1.7	1.62	1.27	0.492	0.995	1.69
TNIKRYHIAKG [HARS1_Y150_V155G]	0.972	0.93	0.867	0.408	0.311	0.409	0.39	0.33	0.351	0.367	0.368	0.506	0.503	0.405	0.356	0.479
TNYPLYLRSLE [MTM1_Y71_R69P]	0.862	0.96	0.433	0.499	1.01	0.603	0.727	0.555	0.671	0.654	1.28	1.18	0.668	0.551	0.987	1.36
TNYRFYLRSLE [MTM1_Y71_L70F]	0.717	0.895	0.495	0.41	0.619	0.48	0.532	0.421	0.438	0.558	1.09	1.19	0.835	0.423	0.855	1.18
TPLSAYQIPRT [GAB2_Y324]	0.853	1.04	0.792	0.435	0.415	0.365	0.466	0.586	0.408	0.29	0.615	0.593	8.8	0.703	0.317	0.539
TQNGVYSAANF [DDX5_Y535_YF]	0.611	0.861	0.855	5.43	1.4	7.62	1.94	4.42	0.489	8.3	0.444	0.56	2	6.66	0.443	0.541
TRDVNYGWVIR [MT-CYB_Y75_I78V]	0.604	1.13	0.654	0.576	0.947	0.647	1.27	1.05	0.612	0.806	1.22	1.16	0.841	1.12	0.869	1.45
TRGLEYIVPLM [CLCN4_Y548_G544R]	0.707	0.835	0.825	0.541	0.804	0.456	0.721	0.409	1.41	0.493	2.02	1.18	0.89	0.457	1.04	0.78
TRSFDYMEGED [FGF7_Y58_G62E_YF]	0.589	0.911	0.618	0.391	0.592	0.649	1.04	0.546	0.827	0.738	1.3	1.41	0.754	0.435	0.788	1.6
TSFQMYDKGLV [IARS2_Y231_F227S_YF]	0.538	0.547	0.315	0.475	0.596	0.649	0.746	0.877	0.651	0.934	1.03	0.925	0.473	0.438	0.82	0.846
TSHKGYVAFLE [CARD9_Y76_G72S]	0.724	0.877	2.64	0.354	0.451	0.353	0.404	0.315	0.477	0.38	0.676	0.707	0.602	0.38	0.554	0.762
TTGGFYSYGGG [KRT24_Y120_A115T]	0.778	0.773	0.945	1.25	1.18	2.56	1.1	4.54	0.528	2.39	0.763	1.03	0.692	13.9	0.664	1.04
TTKVSYRASQP [MKI67_Y1737]	0.83	0.962	0.533	0.343	0.3	0.311	0.337	0.432	0.355	0.326	0.475	0.602	0.638	0.352	0.334	0.489

Further lines, with some results ahead:

SH2 binding enrichment [1]	SH2 binding enrichment [2]	SH2 binding enrichment [3]	Sequence	phosphorylation enrichment [4]	phosphorylation enrichment [5]	phosphorylation enrichment [6]	phosphorylation enrichment [7]	phosphorylation enrichment [8]	phosphorylation enrichment [9]	phosphorylation enrichment [10]	phosphorylation enrichment [11]	phosphorylation enrichment [12]	phosphorylation enrichment [13]	phosphorylation enrichment [14]	phosphorylation enrichment [15]	phosphorylation enrichment [16]
1.39	0.871	0.469	TKGNEYVFRVA	0.489	0.415	0.496	0.565	0.386	0.519	0.511	0.549	0.826	0.537	0.452	0.619	0.82
0.815	1.06	0.635	TLLPDYEDEEE [ZNF830_Y159_S154T]	0.62	0.925	0.605	0.962	0.788	0.683	0.709	1.1	1.64	0.846	0.546	0.938	1.28
0.679	0.804	0.47	TNEFEYDELIV [TGM1_Y136_D132N_YF]	0.669	0.51	0.475	0.424	0.709	0.658	0.747	1.37	1.61	0.951	0.483	0.887	1.61
1.17	1.16	1.16	TQPSPYAVYLF [RPGRIP1_Y823_R827L]	5.65	3.03	7.04	5.25	7.18	1.34	3.73	1.01	1.06	9.15	6.5	1.1	1.68
0.765	1.08	0.93	TQRPYYKGGGG [TYROBP_Y112]	0.438	0.39	0.417	0.303	0.419	0.558	0.377	0.537	0.49	0.573	0.553	0.455	0.666
0.844	0.789	0.503	TSNNPYFRDQA [RPGRIP1_Y846_A841T]	0.721	0.395	0.51	0.374	0.396	0.451	0.454	0.901	0.665	0.628	0.473	0.544	0.796
1.82	1.1	1.86	TTPFNYSFIFK [RAB14_Y8_A4T_YF]	0.593	2.1	0.705	0.734	0.74	0.725	0.695	0.941	1.2	0.86	1.93	0.793	1.28
0.542	0.622	0.581	TTSQPYRRLCS [USH2A_Y534_C536R]	0.356	0.247	0.29	0.393	0.315	0.287	0.286	0.355	0.412	0.288	0.316	0.479	0.866
0.262	0.773	1.29	TVLEPYADPYY [ZC3H18_Y367]	2.44	0.566	1.23	0.697	0.516	0.785	0.834	1.58	2.42	1.25	0.712	0.905	1.69
0.701	0.821	0.854	TYEYKYPEGSS [TGM4_Y440]	0.525	0.526	0.394	0.492	0.392	0.517	0.449	1.05	1.32	0.777	0.414	0.755	1.11
